In publication PMC1762332, “Catalases Are NAD(P)H-Dependent Tellurite Reductases” (PLoS ONE, 2006):

Columns and labels:
[1] = biological target: the molecule itself; test: native gel or EMSA; crude extracts of E. coli Top10 (pCAT) on native 12% polyacrylamide gel, 40 mM Tris-glycine pH 8.3, 4°C; catalase found by H2O2 dismutase and tellurite reductase activity staining in situ
[2] = biological target: the molecule itself; test: native gel or EMSA; purified bovine liver catalase on native 12% polyacrylamide gel, 40 mM Tris-glycine pH 8.3, 4°C; band compared with a 244 kDa standard; dismutase and tellurite reductase activities stained in situ

Row | Protein | stoichiometry N [1] | stoichiometry N [2]
1 | S. epidermidis CH catalase (product of the katA gene) expressed from plasmid pCAT (enzyme, Staphylococcus epidermidis CH, UniProt Q2PUJ9 1-504, looked up, catalase KatA of Staphylococcus epidermidis strain CH; The coding region was amplified with primers from the ATG to the stop codon; The 1,515 bp gene is deposited as GenBank DQ301862 and differs by 15 bp from its homolog SE1016 in strain ATCC12228; Cloned with the pBAD TOPO TA Expression Kit; also called S. epidermidis catalase; 60 kDa protein; source: E. coli Top10 carrying pCAT (pBAD vector), …) MSKQDGKLTGLFGAPVSDRENSMTAGRRGPLLMQDVYYLEQISHFDREVIPERRMHAKGSGAFGTFTVTNDITQYTNAKIFSEVGKQTEMFARFSTVSGERGAADLERDIRGFALKFYTEDGNWDLVGNNTPVFFFRDPKLFISLNRAVKRDPRTNMRSAQNNWDFWTGLPEALHQVTILMSDRGMPKGFRNMHGFGSHTYSMYNDKGERVWVKYHFRTQQGIENYTDEEAAKIVGMDRDSSQRDLYNAIENGDYPKWKMYIQVMTEEQAKNHPDNPFDLTKVWYKKDYPLIEVGEFELNRNPENYFLDVEQAAFAPTNIVPGLDYSPDKMLQGRLFSYGDAQRYRLGVNHWQIPVNQPKGVGVENLCPFSRDGQMRFLDNNQGGGPHYYPNNQGIYESQPEHKKPPFPTDGDGYEYNYRQDDDNYFEQPGKLFRLQSEDAKERIFTNTANAMDGVSKDVKVRHIRHCYKADPEYGKGVAKALDIDINQIDLETNQDETYENFK | 4 | 
2 | bovine liver catalase (enzyme, UniProt P00432 1-527, looked up, catalase (EC 1.11.1.6) from bovine liver, commercial purified enzyme; the legend calls it a tetramer of 255 kDa; also called bovine catalase; catalase (C-9322); source: bought: Sigma (C-9322), purified) MADNRDPASDQMKHWKEQRAAQKPDVLTTGGGNPVGDKLNSLTVGPRGPLLVQDVVFTDEMAHFDRERIPERVVHAKGAGAFGYFEVTHDITRYSKAKVFEHIGKRTPIAVRFSTVAGESGSADTVRDPRGFAVKFYTEDGNWDLVGNNTPIFFIRDALLFPSFIHSQKRNPQTHLKDPDMVWDFWSLRPESLHQVSFLFSDRGIPDGHRHMNGYGSHTFKLVNANGEAVYCKFHYKTDQGIKNLSVEDAARLAHEDPDYGLRDLFNAIATGNYPSWTLYIQVMTFSEAEIFPFNPFDLTKVWPHGDYPLIPVGKLVLNRNPVNYFAEVEQLAFDPSNMPPGIEPSPDKMLQGRLFAYPDTHRHRLGPNYLQIPVNCPYRARVANYQRDGPMCMMDNQGGAPNYYPNSFSAPEHQPSALEHRTHFSGDVQRFNSANDDNVTQVRTFYLKVLNEEQRKRLCENIAGHLKDAQLFIQKKAVKNFSDVHPEYGSRIQALLDKYNEEKPKNAVHTYVQHGSHLSAREKANL |  | 4
